Assay results from patent US20070066547.

Key:
[1] = system: HIV-1 Ba-L virus (gp120) (Human immunodeficiency virus 1 (Ba-L)); assay: cell_activity; settings: 2'-F pyrimidines (U, C)
[2] = system: gp120 envelope glycoprotein, HIV-1 Ba-L (SU) (Human immunodeficiency virus 1 (Ba-L)); assay: competition; settings: 2'-F pyrimidines (U, C); at highest aptamer concentration, no CD4; 48d inhibited at nM with CD4; CG10 and sCD4 binding not inhibited
[3] = system: HIV-1 Ba-L break-through clones after B4 selection (gp120) (Human immunodeficiency virus 1 (Ba-L)); assay: cell_activity; settings: 2'-F pyrimidines (U, C); 100 nM aptamer; all four break-through clones neutralised

Sequence “AUGACGUACCCGCACAAGCCACCACAAGUCUUAAUCGCGCCACCCUUGC [B84]” has an activity (log10 IU/ml reduction) ([1]; 100 nM aptamer, PBMC TCID50) greater than 4.
“GAGCGGUUAAGGGAGAUUUAGGCAGCAGCUUGGACAGUGUAUCGGCUGAG [B4]” gave a binding signal (% inhibition of mAb 17b binding) [2] of 50, an activity (log10 IU/ml reduction) [3] greater than 4 and an IC50 ([1]; neutralisation in human PBMC, about 5 log10 at 100 nM) of less than 1 nM.
